Data published in publication PMC3145769.

Experiments:
Test in all cases: co-IP; anti-Flag M2 affinity gel on extracts of NIH3T3 cells transfected with 3xFlag Cyclin A2 alleles; endogenous partners detected by Western blot; densitometry (ImageQuantTL) normalised to immunoprecipitated Cyclin A2, percent of WT; repeated 5 times
[1] = target: Cyclin A2 K256A, C-terminally fused to 3 Flag tags (mouse) (UniProt P51943)
[2] = target: Cyclin A2 L282R, C-terminally fused to 3 Flag tags (mouse) (UniProt P51943)
Cyclin A2 L282R, C-terminally fused to 3 Flag tags (mouse), sequence (P51943 whole entry L282R, the tested form may be a part): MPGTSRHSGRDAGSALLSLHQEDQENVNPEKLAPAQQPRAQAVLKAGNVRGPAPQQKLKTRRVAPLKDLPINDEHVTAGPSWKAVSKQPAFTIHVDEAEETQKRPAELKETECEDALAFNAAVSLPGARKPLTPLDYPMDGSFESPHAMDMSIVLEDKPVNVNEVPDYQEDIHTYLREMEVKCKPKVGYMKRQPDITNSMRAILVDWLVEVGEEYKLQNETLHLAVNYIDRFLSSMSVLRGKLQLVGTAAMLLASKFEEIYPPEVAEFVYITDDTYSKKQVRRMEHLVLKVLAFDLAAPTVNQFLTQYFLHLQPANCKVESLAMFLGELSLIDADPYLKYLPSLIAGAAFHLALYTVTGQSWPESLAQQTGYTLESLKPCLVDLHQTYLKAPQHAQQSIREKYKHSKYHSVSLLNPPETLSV

[3] = target: Cyclin A2 W207A, C-terminally fused to 3 Flag tags (mouse) (UniProt P51943)
Cyclin A2 W207A, C-terminally fused to 3 Flag tags (mouse), sequence (P51943 whole entry W207A, the tested form may be a part): as the sequence (P51943 whole entry L282R, the tested form may be a part) above, with W207A, R282L counted along it

[4] = target: Cyclin A2 E285A, C-terminally fused to 3 Flag tags (mouse) (UniProt P51943)
Cyclin A2 E285A, C-terminally fused to 3 Flag tags (mouse), sequence (P51943 whole entry E285A, the tested form may be a part): as the sequence (P51943 whole entry L282R, the tested form may be a part) above, with R282L, E285A counted along it

[5] = target: Cyclin A2 D171A, C-terminally fused to 3 Flag tags (mouse) (UniProt P51943)
Cyclin A2 D171A, C-terminally fused to 3 Flag tags (mouse), sequence (P51943 whole entry D171A, the tested form may be a part): as the sequence (P51943 whole entry L282R, the tested form may be a part) above, with D171A, R282L counted along it

[6] = target: Cyclin A2 Double (W207L, E210Q), C-terminally fused to 3 Flag tags (mouse) (UniProt P51943)
Cyclin A2 Double (W207L, E210Q), C-terminally fused to 3 Flag tags (mouse), sequence (P51943 whole entry W207L/E210Q, the tested form may be a part): as the sequence (P51943 whole entry L282R, the tested form may be a part) above, with W207L, E210Q, R282L counted along it

[7] = target: Cyclin A2 L204A, C-terminally fused to 3 Flag tags (mouse) (UniProt P51943)
Cyclin A2 L204A, C-terminally fused to 3 Flag tags (mouse), sequence (P51943 whole entry L204A, the tested form may be a part): as the sequence (P51943 whole entry L282R, the tested form may be a part) above, with L204A, R282L counted along it

[8] = target: Cyclin A2 M200A, C-terminally fused to 3 Flag tags (mouse) (UniProt P51943)
Cyclin A2 M200A, C-terminally fused to 3 Flag tags (mouse), sequence (P51943 whole entry M200A, the tested form may be a part): as the sequence (P51943 whole entry L282R, the tested form may be a part) above, with M200A, R282L counted along it

[9] = target: Cyclin A2 E210Q, C-terminally fused to 3 Flag tags (mouse) (UniProt P51943)
Cyclin A2 E210Q, C-terminally fused to 3 Flag tags (mouse), sequence (P51943 whole entry E210Q, the tested form may be a part): as the sequence (P51943 whole entry L282R, the tested form may be a part) above, with E210Q, R282L counted along it

[10] = target: Cyclin A2 E180A, C-terminally fused to 3 Flag tags (mouse) (UniProt P51943)
Cyclin A2 E180A, C-terminally fused to 3 Flag tags (mouse), sequence (P51943 whole entry E180A, the tested form may be a part): as the sequence (P51943 whole entry L282R, the tested form may be a part) above, with E180A, R282L counted along it

[11] = target: Cyclin A2 WT, C-terminally fused to 3 Flag tags (mouse) (UniProt P51943)
Cyclin A2 WT, C-terminally fused to 3 Flag tags (mouse), sequence (P51943 whole entry, the tested form may be a part): as the sequence (P51943 whole entry L282R, the tested form may be a part) above, with R282L counted along it

Cyclin A2 K256A, C-terminally fused to 3 Flag tags (mouse), sequence (P51943 whole entry K256A, the tested form may be a part): as the sequence (P51943 whole entry L282R, the tested form may be a part) above, with K256A, R282L counted along it

percent co-precipitated relative to WT [1] | percent co-precipitated relative to WT [2] | percent co-precipitated relative to WT [3] | percent co-precipitated relative to WT [4] | percent co-precipitated relative to WT [5] | percent co-precipitated relative to WT [6] | percent co-precipitated relative to WT [7] | percent co-precipitated relative to WT [8] | percent co-precipitated relative to WT [9] | percent co-precipitated relative to WT [10] | percent co-precipitated relative to WT [11] | Substance
68.2% |  |  |  |  |  |  |  |  |  |  | CDK2 (endogenous, NIH3T3) (from UniProt P97377 1-346)
 | 81.5% | 1.2% | 41.7% | 100% | 66.4% | 72.4% | 86.4% | 99.6% | 17.7% | 100% | CDK2 (endogenous, NIH3T3) (from UniProt P97377 1-346) (enzyme)
